Results taken from patent publication US20110129470A1 (BOARD OF TRUSTEES OF THE UNIVERSITY OF ILLNOIS, published 2011).

Target: the molecule itself
Test: X-ray crystal structure of human dCK
Excerpt: Crystals were transferred to a cryoprotectant solution that in the case of the citrate condition was made of mineral oil (Sigma) while for the crystals grown in PEG it was composed of the mother liquor and 10% (w/v) xylitol-10% (w/v) sucrose. Once the crystals were mounted in loops, they were frozen by directly immersing them in liquid nitrogen. X-ray data were collected at the Advanced Photon Source using the BioCARS beamlines BM-C and BM-D, and the SERCAT beamline ID-22.
Data for the MAD data set were collected to 2.3 Å resolution. A partially built model into the MAD electron density was used to solve the tetragonal crystals. The electron density for dCK extended to the last residue (Leu260), while the N-terminus (residues 1 to 19) was flexible and could not be modeled. […] The ligands were refined without conformational torsion-angle restraints in order to prevent bias towards a particular ring conformation for the sugars.

B1: Human deoxycytidine kinase (dCK), wild type (enzyme)
chain: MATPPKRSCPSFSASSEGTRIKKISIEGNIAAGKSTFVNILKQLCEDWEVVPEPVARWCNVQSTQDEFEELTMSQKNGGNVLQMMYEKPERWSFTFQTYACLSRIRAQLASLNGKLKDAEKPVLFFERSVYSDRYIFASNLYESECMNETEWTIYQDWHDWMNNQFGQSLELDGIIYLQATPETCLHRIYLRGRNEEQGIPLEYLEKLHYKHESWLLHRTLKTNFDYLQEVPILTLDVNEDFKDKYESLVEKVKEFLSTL
modifications: selenomethionine-substituted protein was used for the MAD phasing data set
notes: Recombinant protein from E. coli; the His-tag was cleaved by thrombin before crystallisation; Residues 1 to 19 were flexible and not modelled; It is a homodimer in the crystal structure; also called human dCK; WT dCK
B1: binds.
